Patent US20230167188A1 (BIOLOJIC DESIGN, published 2023)
Changes are numbered by the printed parent chain. Names may count otherwise.

T1: human TNFR2 (residues 1-461) expressed on HEK-TNFR2 reporter cells (human, UniProt P20333 23-461)
T1 sequence (looked up): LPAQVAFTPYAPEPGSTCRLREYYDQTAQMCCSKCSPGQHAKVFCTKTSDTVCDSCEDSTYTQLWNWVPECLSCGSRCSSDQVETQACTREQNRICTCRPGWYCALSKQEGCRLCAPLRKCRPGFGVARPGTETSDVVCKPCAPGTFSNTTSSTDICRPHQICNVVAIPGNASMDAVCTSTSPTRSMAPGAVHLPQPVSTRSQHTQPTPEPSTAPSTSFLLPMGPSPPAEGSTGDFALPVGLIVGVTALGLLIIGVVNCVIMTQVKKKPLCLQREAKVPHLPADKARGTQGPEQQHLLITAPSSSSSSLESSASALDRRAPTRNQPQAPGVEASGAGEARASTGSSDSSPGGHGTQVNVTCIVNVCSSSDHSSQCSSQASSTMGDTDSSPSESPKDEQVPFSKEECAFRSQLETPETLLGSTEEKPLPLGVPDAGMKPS

T2: recombinant human TNFR2 with 6×his tag (human, UniProt P20333 23-257, limits assumed)
T2 construct: Bought (Reprokine, Israel); also called TNFR2-His; hTNFR2-His; not shown: 6xHis tag
T2 sequence (looked up): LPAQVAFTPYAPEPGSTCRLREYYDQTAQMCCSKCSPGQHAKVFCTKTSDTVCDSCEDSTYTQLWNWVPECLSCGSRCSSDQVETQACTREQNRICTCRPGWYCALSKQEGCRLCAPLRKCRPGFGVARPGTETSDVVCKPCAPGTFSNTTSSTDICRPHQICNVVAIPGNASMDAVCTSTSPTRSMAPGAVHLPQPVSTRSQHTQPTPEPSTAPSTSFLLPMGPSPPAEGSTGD

B1: BDG30.032 (antibody, human IgG1, kappa)
heavy: not shown
light: DIQMTQSPILLSASVGDRVTITCRASQDVSTAVAWSQQRTNGSPRLLIYSASSLYSGVPSRFSGSRSGTDFTLTISSLQPEDIADYYCQQPTYTPPTFGAGTKVEIKRTVAAPSVFIFPPSDEQLKSGTASVVCLLNNFYPREAKVQWKVDNALQSGNSQESVTEQDSKDSTYSLSSTLTLSKADYEKHKVYACEVTHQGLSSPVTKSFNRGEC
notes: Human IgG1; produced in HEK cells by Genscript; also called IgG of CID_436
B2: BDG30.115 (antibody, human IgG1, kappa, L234A L235A)
heavy: not shown
light: B1 light
B3: BDG30.081 (antibody, human IgG1, kappa, V domains shown)
VH: EVQLVESGGGLVQPGGSLRLSCAASGFNIRATYIHWVRQSPGKGLEWVADISPDNGDTRYADSVKGRFTISADTSKNTAYLQMNSLRAEDTAIYYCSRDLADGYNAFDLWGQGTLVTVSS
VL: DIQMTQSPILLSASVGDRVTITCRASQDVSTAVAWSQQRTNGSPRLLIYSASSLYSGVPSRFSGSRSGTDFTLTISSLQPEDIADYYCQQHGYTPPTFGAGTKVEIKR
notes: Human IgG1; also called IgG of CID_231
B4: BDG30.084 (antibody, human IgG1, kappa, V domains shown)
VH: B3 VH with T32F, S52D, D54T, S97T, D99E, L100G, A101E, L109Q
VL: B3 VL with S36Y, S50P, H91P, G92R
notes: Human IgG1; also called IgG of CID_234
B5: BDG30.113 (antibody, human IgG1, kappa, L234A L235A, V domains shown)
VH: EVQLVQSGPELKKPGASVKVSCKGSGYTFTDLGMGWVRQAPGQGLEWMGWINTQTGEPFYADDFKGRFVFSLDTSVSTAYLQISSLKAEDTAVYYCTRDHPLGLDYWGQGTLVTVSS
VL: DIQVTQSPSSLSASVGDRVTITCITSQSVDVAGVSYLNWYQQKPGKVPKFLIHKASNLRSGVPSRFSGSGSGTDFTLTISSLQPEDVATYYCQQAREDPYTFGQGTKVEIKR
notes: Human IgG1(L234A/L235A); also called IgG of CID_327
B6: BDG30.114 (antibody, human IgG1, kappa, L234A L235A, V domains shown)
VH: B5 VH with G35N, Y95F, T97A
VL: B5 VL with A32N, H53Y, N57I, A95S
notes: Human IgG1(L234A/L235A); also called IgG of CID_328
B7: BDG30.202 (antibody, human IgG1, kappa, L234A L235A)
heavy: not shown
light: DIQMTQSPSSLSASVGDRVTITCRASQDISTAVAWSQQKPGKAPKLLIYSASSLYSGVPSRFSGSRSGTDFTLTISSLQPEDFATYYCQQPSLTPPTFGQGTKVEIKRTVAAPSVFIFPPSDEQLKSGTASVVCLLNNFYPREAKVQWKVDNALQSGNSQESVTEQDSKDSTYSLSSTLTLSKADYEKHKVYACEVTHQGLSSPVTKSFNRGEC
B8: BDG30.204 (antibody, human IgG1, kappa, L234A L235A)
heavy: not shown
light: B7 light with I29V, S36Y, S50P, S92G, L93Y
B9: BDG30.203 (antibody, human IgG1, kappa, L234A L235A)
heavy: not shown
light: B7 light with I29V, S50P, S92T
B10: BDG30.089 (antibody, human IgG1, kappa, V domains shown)
VH: B3 VH with A31D, T32Y, S40A, S52D, D54T, I93V, D99E, L100G, A101Q, F107W
VL: DIQMTQSPSSLSASVGDRVTITCRASQDVSTAVAWYQQKPGKAPKLLIYPASSLYSGVPSRFSGSRSGTDFTLTISSLQPEDFATYYCQQHPYTPPTFGQGTKVEIKR
notes: Human IgG1; also called IgG of CID_267

Key:
[1] = target: T1, human TNFR2 (residues 1-461) expressed …; assay: cell-based or functional assay
[2] = target: T2, recombinant human TNFR2 with 6×his tag; assay: ELISA, IgG coated, hTNFR2-His titrated, anti-His-HRP
Protocol: IgG binding affinity to TNFR2 was examined by ELISA. 96 well plates (Greiner Bio-One high binding) were coated with (50 ng/well) of the analyzed antibody and incubated overnight at 4° C. The plates were then washed three times with 300 μl PBS buffer containing 0.05% Tween 20 (PBS-T), blocked with 300μ PBS-T supplemented with 1% to 2% BSA, and incubated for 1 hour at room temperature. Antibodies-coated plates were washed three times with 300 μl PBS-T and incubated with serial dilutions of test ligand hTNFR2-His (Reprokine, Israel) in a final volume of […] for 1-2 hours. Plates were then washed three times with 300 μl PBS-T and incubated with 50 μl anti-HIS-HRP (Santa Cruz Biotechnology, USA, SC-8036HRP) conjugate that was diluted 1:250 in PBS. After an additional wash step of six washes, the reaction was developed with […] tetramethylbenzidine (TMB) reagent (Southern biotech, USA), and stopped with […] 0.5N H₂SO₄. Detection was done on a Synergy LX BioTek (BioTek, USA) plate reader with an absorbance filter set to […]. The binding affinity was determined by fitting the data to a specific binding non-linear regression model on Prisma 8 GraphPad software.
To test binding affinity of clones reformatted as IgG1 and IgG1LALA to TNFR2, an ELISA EC₅₀ binding experiment was conducted for each antibody.

| Binder | Functional Agonism EC50 (nM), NFkB-SEAP reporter [1] [nM] | EC50 [2] [nM] |
| --- | --- | --- |
| B1 | 0.85 | 21.9 |
| B2 | 1 | – |
| B3 | – | 50.7 |
| B4 | – | 58.9 |
| B5 | 3.8 | 2.5 |
| B6 | 6.4 | 2.2 |
| B7 | 2.9 | – |
| B8 | 3.1 | – |
| B9 | 0.5 | – |
| B10 | – | 50.4 |
